Data as given in patent publication EP4763862A1.
Residue numbers refer to the chain shown, from its start.

B1: 28-B1-E8-C11 (antibody, human IgG1, kappa, V domains shown)
VH: EVKLVESGAVLVKPGASVKISCKASGYTLSDFNMDWVKQSQGKSLEWVGDINPNYDTITYNQKFRGKATLTVDRSSNTAYMELRSLTSEDSAVYYCARGELGRYFYVWGAGTTVTVSS
VL: DIQLTQPPASLSASVGETVTITCRASENVYSYLAWYRQKQGRSPQLLVYNAKTLPEGVPSRFSGSGSGTQFSLKINSLQTEDLGDYYCQHHYGTPWTFGGGTKLEIKR
B2: cAb2-z1-p9 (antibody, human IgG1, kappa, V domains shown)
VH: B1 VH
VL: DIQLTQPPSSLSASVGDRVTITCRASENVYSYLAWYQQKPGRSPQLLVYNAKTLPEGVPSRFSGSGSGTQFTLTISSLQPEDFADYYCSHHYGTPWTFGGGTKVEIKR
B3: cAb1-z0-p7 (antibody, human IgG1, kappa, V domains shown)
VH: EVQLVESGGGLVKPGGSLRLSCAASGFTFSSYGMSWVRQAPGKGLEWVSSISGSGSYTYYPDSLKGRFTISRDNAKNSLYLQMNSLRAEDTAVYYCARQQGYWYFDVWGQGTTVTVSS
VL: DIVMTQTPLSLPVTPGEPASISCRASQSLASSYGKTYLSWYLQKPGQSPQLLIYGISNRFSGVPDRFSGSGSGTDFTLKISRVEAEDVGVYYCLHGTHQPLTFGQGTKLEIKR
B4: cAb1-z3-p7 (antibody, human IgG1, kappa, V domains shown)
VH: B3 VH with G44R
VL: B3 VL with I2V
B5: cAb1-z5-p7 (antibody, human IgG1, kappa, V domains shown)
VH: B3 VH with G44R, S49A
VL: B3 VL with I2V
B6: cAb2-z5-p6 (antibody, human IgG1, kappa, V domains shown)
VH: QVQLVESGAVVKKPGASVKVSCKASGYTLSDFNMDWVRQAPGKSLEWMGDINPNYDTITYNQKFRGRVTLTVDRSINTAYMELSRLRSDDTAVYYCARGELGRYFYVWGAGTMVTVSS
VL: B2 VL
B7: 34-H11-D9-F6 (antibody, human IgG1, kappa, V domains shown)
VH: EVQLQQSGAELVKPRASVRLSCRASGYTFTSYWMHWVKQRPGQGLEWIGMIHPNSGSTNYNEKFKSKATLTVDKSSSTAYMQLSSLTSEDSAVYFCARERFGLLRYFDYWGQGTTLTVSS
VL: DIVMTQSPSSMYASLGERVTITCKASQDINSFLSWFQQKPGKSPKTLLYRANRLMDGVPSRFSGSGSGQDFSLTISSREYEDMGIYYCLQYDEFPFTFGSGTKLELKR
B8: 28-F8-C4-A8 (antibody, human IgG1, kappa, V domains shown)
VH: EVQLQQSGAELVQPGASMKLSCKTSGYTFTTYDINWVRQRPEQGLEWIGWIFPGDGTTKYNEKFKGKATLTTDKSSSTAYMHLSRLTSEDSVVYFCARTPWFDYWGQGTTLTVSS
VL: DIVLSQSPAIMSASPGEKVIMTCSASSSISYMYWYQQKPGTSPKRWIYDTSKLASGVPARFSVSGSGTSYSLTISSMEAEDAATYYCHQRSSYPTFGGGTKLELKR
B9: 16-B6-G3-E10 (antibody, human IgG1, kappa, V domains shown)
VH: EVQLQQSGTELVRPGALVKLSCKTSGFNIKDCYMHWVKQRPEQGLEWIGWIDPENGNTIYDPKFQGKATITADTSSYTAYLQLSSLTSEDTAVYYCARSRARGYAMDYWGQGTSVTVTS
VL: DIVMTQSPASLAVSLGQRATISCRASQSVSTSSYSYMHWYRQIPGQPPKLLIKYASNLESGVPARFSGSGSGTDFTLNIHPVEEEDTATYYCQHSWEIPRTFGGGTKLELKR
B10: 19-F1-E9-B11 (antibody, human IgG1, kappa, V domains shown)
VH: EVQLQQSGPSLVKPSQTLSLTCSVTGGSITSFYWNWIRKFPGNKLEYMGYISSSGSTYYNPSLKSRISITRDTSKNQSYLQLNSVTAEDTATYYCARGGVHYGFGDYWGQGTSVTVSS
VL: DIVMTQSAPSVPVTPGESVSISCRSSKSLLHSNGNTYLYWFLQRPGQSPQLLIYRMSNLASGVPDRFSGSGSGTAFTLRISRVEAEDVGVYYCMQHLEYPLTFGAGTKLELKR
B11: 16-D10-E1-E1 (antibody, human IgG1, kappa, V domains shown)
VH: EVQLQQSGPELVRPGVSVKISCKGSGYTFTDYAMHWVKQSHAKSLEWIGVINTYSGNTYYSQKFKGKATMTVDKSSSTAYMELARLTSEDSAIYYCARGAGYFPYWYFDVWGAGTTVTVSS
VL: DIQMIQSPSYLAASPGETITINCRASKSISKYLAWYQEKPGKTNKLLIYSGSTLQSGIPSRFSGSGSGTDFTLTISSLEPEDFAMYYCQQHYEYPYTFGGGTKLEIKR

Target: Human B7-H3-His protein (human) (UniProt Q5ZPR3)
Test: SPR, Biacore 8K, antibody captured by anti-human IgG Fc on CM5, B7-H3 Human-His as analyte, 1:1 model

| Kd [nM] | koff [s⁻¹] | kon [M⁻¹ s⁻¹] | Binder |
| --- | --- | --- | --- |
| 5.91 | 0.000846 | 143000 | B1 |
| 4.85 | 0.000802 | 165000 | B2 |
| 6.53 | 8.2e-05 | 12600 | B3 |
| 4.02 | 6.87e-05 | 17100 | B4 |
| 3.51 | 7.21e-05 | 20500 | B5 |
| 6.6 | 0.00122 | 184000 | B6 |

Target: Human B7-H3-His protein (human) (UniProt Q5ZPR3)
Test: BLI, Fortebio Octet R2, antibody on AMQ sensor, human B7-H3-His in solution

| Kd [nM] | koff [s⁻¹] | kon [M⁻¹ s⁻¹] | Binder |
| --- | --- | --- | --- |
| 0.0522 | 7.52e-05 | 1.44e+06 | B7 |
| 0.0714 | 8.49e-05 | 1.19e+06 | B1 |
| 0.0434 | 7.56e-05 | 1.74e+06 | B8 |
| < 0.001 | < 1e-07 | 1.3e+06 | B9 |
| 2.32 | 0.000408 | 176000 | B10 |
| 0.0877 | 0.000142 | 1.62e+06 | B11 |
